This data set concerns the molecule itself. The experiment in a line: SEC.

B1: NC-4 nucleocapsid subunit (other)
chain: MGNARTRRRERRAEKQAQWKAANAGAGAGAMATPHFDYNASVVSKGLANLSLELRKPVSFDIITADTLEQAIERAGTKHGNKGWEAALSAIEMANLYKSLRGTEHHHHLHGSSIEIYEGKLTAEGLRFGIVASRFNHTLVDRLVEGAIDCIVRHGGRGEDITLVRVPGAWEIPVAADELARKEDIDAVIAFGDLIRG
Regarding B1, the binding result was “binds”.

These data come from doi:10.1101/2025.10.22.683813 (bioRxiv, 2025).
